Experimental data taken from patent publication US9695426B2, “Biofuel production by recombinant microorganisms” (The Regents of the University of California, priority 2007, dated 2017).

B1: PDC6: 2-keto-acid decarboxylase Pdc6 from S. cerevisiae (protein, listed as Saccharomyces cerevisiae)
chain: MSEITLGKYLFERLKQVNVNTIFGLPGDFNLSLLDKIYEVDGLRWAGNANELNAAYAADGYARIKGLSVLVTTFGVGELSALNGIAGSYAEHVGVLHVVGVPSISAQAKQLLLHHTLGNGDFTVFHRMSANISETTSMITDIATAPSEIDRLIRTTFITQRPSYLGLPANLVDLKVPGSLLEKPIDLSLKPNDPEAEKEVIDTVLELIQNSKNPVILSDACASRHNVKKETQKLIDLTQFPAFVTPLGKGSIDEQHPRYGGVYVGTLSKQDVKQAVESADLILSVGALLSDFNTGSFSYSYKTKNVVEFHSDYVKVKNATFLGVQMKFALQNLLKVIPDVVKGYKSVPVPTKTPANKGVPASTPLKQEWLWNELSKFLQEGDVIISETGTSAFGINQTIFPKDAYGISQVLWGSIGFTTGATLGAAFAAEEIDPNKRVILFIGDGSLQLTVQEISTMIRWGLKPYLFVLNNDGYTIEKLIHGPHAEYNEIQTWDHLALLPAFGAKKYENHKIATTGEWDALTTDSEFQKNSVIRLIELKLPVFDAPESLIKQAQLTAATNAKQ
modifications: CDS (1)..(1692)
notes: 2-keto-acid decarboxylase Pdc6 from S. cerevisiae
B2: Kivd: 2-keto-acid decarboxylase Kivd from Lactococcus lactis (protein, listed as Lactococcus lactis)
chain: MYTVGDYLLDRLHELGIEEIFGVPGDYNLQFLDQIISRKDMKWVGNANELNASYMADGYARTKKAAAFLTTFGVGELSAVNGLAGSYAENLPVVEIVGSPTSKVQNEGKFVHHTLADGDFKHFMKMHEPVTAARTLLTAENATVEIDRVLSALLKERKPVYINLPVDVAAAKAEKPSLPLKKENSTSNTSDQEILNKIQESLKNAKKPIVITGHEIISFGLEKTVSQFISKTKLPITTLNFGKSSVDEALPSFLGIYNGKLSEPNLKEFVESADFILMLGVKLTDSSTGAFTHHLNENKMISLNIDEGKIFNESIQNFDFESLISSLLDLSEIEYKGKYIDKKQEDFVPSNALLSQDRLWQAVENLTQSNETIVAEQGTSFFGASSIFLKPKSHFIGQPLWGSIGYTFPAALGSQIADKESRHLLFIGDGSLQLTVQELGLAIREKINPICFIINNDGYTVEREIHGPNQSYNDIPMWNYSKLPESFGATEERVVSKIVRTENEFVSVMKEAQADPNRMYWIELILAKEDAPKVLKKMGKLFAEQNKS
B3: ARO10: 2-keto-acid decarboxylase Aro10 from S. cerevisiae (protein, listed as Saccharomyces cerevisiae)
chain: MAPVTIEKFVNQEERHLVSNRSATIPFGEYIFKRLLSIDTKSVFGVPGDFNLSLLEYLYSPSVESAGLRWVGTCNELNAAYAADGYSRYSNKIGCLITTYGVGELSALNGIAGSFAENVKVLHIVGVAKSIDSRSSNFSDRNLHHLVPQLHDSNFKGPNHKVYHDMVKDRVACSVAYLEDIETACDQVDNVIRDIYKYSKPGYIFVPADFADMSVTCDNLVNVPRISQQDCIVYPSENQLSDIINKITSWIYSSKTPAILGDVLTDRYGVSNFLNKLICKTGIWNFSTVMGKSVIDESNPTYMGQYNGKEGLKQVYEHFELCDLVLHFGVDINEINNGHYTFTYKPNAKIIQFHPNYIRLVDTRQGNEQMFKGINFAPILKELYKRIDVSKLSLQYDSNVTQYTNETMRLEDPTNGQSSIITQVHLQKTMPKFLNPGDVVVCETGSFQFSVRDFAFPSQLKYISQGFFLSIGMALPAALGVGIAMQDHSNAHINGGNVKEDYKPRLILFEGDGAAQMTIQELSTILKCNIPLEVIIWNNNGYTIERAIMGPTRSYNDVMSWKWTKLFEAFGDFDGKYTNSTLIQCPSKLALKLEELKNSNKRSGIELLEVKLGELDFPEQLKCMVEAAALKRNKK
modifications: CDS (1)..(1908)
notes: 2-keto-acid decarboxylase Aro10 from S. cerevisiae
B4: CimA1: CimA variant with three amino acid substitutions (Ile47Val, Lys435Asn, Val441Ala) (protein, UniProt Q58787 1-491, looked up, variant I47V K435N V441A)
(R)-citramalate synthase CimA: MMVRIFDTTLRDGEQTPGVSLTPNDKLEIAKKLDELGVDVIEAGSAVTSKGEREGIKLITKEGLNAEICSFVRALPVDIDAALECDVDSVHLVVPTSPIHMKYKLRKTEDEVLETALKAVEYAKEHGLIVELSAEDATRSDVNFLIKLFNEGEKVGADRVCVCDTVGVLTPQKSQELFKKITENVNLPVSVHCHNDFGMATANTCSAVLGGAVQCHVTVNGIGERAGNASLEEVVAALKILYGYDTKIKMEKLYEVSRIVSRLMKLPVPPNKAIVGDNAFAHEAGIHVDGLIKNTETYEPIKPEMVGNRRRIILGKHSGRKALKYKLDLMGINVSDEQLNKIYERVKEFGDLGKYISDADLLAIVREVTGKLVEEKIKLDELTVVSGNKITPIASVKLHYKGEDITLIETAYGVGPVDAAINAVRKAISGVADINLVEYRAEAIGGGTDALIEVVVKLRKGTEIVEVRKSDADIIRASVDAVMEGINMLLN

Legend:
[1] = test system: E. coli culture expressing kivd; test: Alcohol productions with the supply of 2-keto acids; format: cell-based; details: 2-keto acid added to E. coli culture expressing kivd
Description: The addition of various 2-keto acids (see Table 13) to the E. coli culture expressing kivd confirmed the specific production of the corresponding alcohols by 2- to 23-fold.

[2] = test system: endogenous 2-keto acids in E. coli; test: Alcohol productions with KDC and ADH in E. coli; format: cell-based; details: KDC over-produced with Adh2 in E. coli; minimal media with 0.2 M glucose
Description: An enzyme in this alcohol production strategy is KDC, which is common in plants, yeasts and fungi but less so in bacteria. The aldehydes produced can then be converted to alcohols by an Adh, which is commonly found in many organisms. Some of the KDCs have broad-substrate ranges, while others are more specific. To test the capability of the endogenous 2-keto acids as a substrate for KDC in E. coli, five KDCs including Pdc6, Aro10, Thi3, from S. cerevisiae, Kivd from Lactococcus lactis, and Pdc from C. acetobutylycum were over-produced with alcohol dehydrogenase 2 (Adh2) of S. cerevisiae. E. coli cultures expressing these foreign genes were grown in a minimal media with 0.2 M glucose.

[3] = test system: KS145; test: 1-Propanol and 1-butanol production with the selected CimA mutants (citramalate pathway); format: cell-based, E. coli; details: 30° C. for 40 h
Method: Medium and cultivation for 1-propanol and 1-butanol production. M9 medium containing 36 g/L glucose, 5 g/L yeast extract, 100 μg/ml ampicillin, 30 μg/ml kanamycin and 1000th dilution of Trace Metal Mix A5 (2.86 g H3BO3, 1.81 g MnCl2.4H2O, 0.222 g ZnSO4.7H2O, 0.39 g Na2MoO4.2H2O, 0.079 g CuSO4.5H2O, 49.4 mg Co(NO3)2.6H2O per liter water) was used for cell growth. Preculture in test tubes containing 3 ml of medium was performed at 37° C. overnight on a rotary shaker (250 rpm). Overnight culture was diluted 1:100 into 20 ml of fresh medium in a 250 ml screw cap conical flask. Cells were grown at 37° C. for 3 hr, followed by adding 0.1 mM IPTG. Cultivation was performed at 30° C. on a rotary shaker (250 rpm). Gas chromatography-flame ionization detector and high-performance liquid chromatography analyses were performed.
The citramalate pathway was then used to enhance the production of 1-propanol and 1-butanol (FIG. 13). An E. coli strain (KS145) auxotrophic for L-isoleucine, leucine, and valine (ΔilvI and ΔilvB). was transformed with pSA63 (or other plasmids containing variants of cimA) and pSA55 (PLlacO1::kivd-ADH2). The deletions of ilvI and ilvB (FIG. 13) were introduced for two reasons. First, the deletions eliminated the native substrate, 2-ketoisovalerate, for the leuABCD pathway, thus reducing the competitive substrate inhibition. Second, these deletions eliminated the production of 2-keto-3-methyl-valerate and 2-keto-4-methyl-pentanoate, which are competing substrates for Kivd. The strain expressing the wild-type cimA gene (KS145/pSA63/pSA55) produced 302 mg/liter 1-propanol and 18 mg/liter 1-butanol after 40 h (FIG. 60). KS145 with pSA55 only, where Kivd utilizes endogenous 2-keto acids, produced 40 mg/liter 1-propanol and 10 mg/liter 1-butanol under the same condition. KS145 without pSA55 and pSA63 produced neither 1-propanol nor 1-butanol (FIG. 60). Note that the yeast extract was added to the medium to boost the cell density.
1-Propanol and 1-butanol production was tested with the selected CimA variants in KS145 by replacing pSA63 with corresponding plasmids (Table 19) containing various cimA mutants. […] The production of 1-propanol and 1-butanol from the strain with CimA2 increased 3.9- and 4.3-fold, respectively, compared to the strain with the wild-type CimA.

[4] = KS145 with pSA55 and pSA63 (cimA-leuABCD) or its variations
[5] = KS145 with pSA55 and pSA63 variations

| Molecule | Product 3-methyl-1-butanol [1] [µM] | Product 2-phenylethanol [1] [µM] | Product 1-propanol [2] [µM] | Product 2-methyl-1-butanol [2] [µM] | Product 3-methyl-1-butanol [2] [µM] | Product isobutanol [2] [µM] | further results |
| --- | --- | --- | --- | --- | --- | --- | --- |
| CCC(C)C(=O)C(=O)O (centres unmarked) [2-keto-3-methyl-valerate] |  |  |  |  |  |  | Product 2-methyl-1-butanol [1]: 5284 µM |
| CC(C)CC(=O)C(=O)O [2-keto-4-methyl-pentanoate] | 3756 |  |  |  |  |  |  |
| CC(C)C(=O)C(=O)O [2-keto-isovalerate] |  | 109 |  |  |  |  | Product isobutanol [1]: 10016 µM |
| CCCC(=O)C(=O)O [2-ketovalerate] | 52 | 66 |  |  |  |  | Product 1-butanol [1]: 3926 µM |
| O=C(O)C(=O)Cc1ccccc1 [phenylpyruvate] | 105 | 7269 |  |  |  |  | Product 1-butanol [1]: 23 µM; Product 1-propanol [1]: 8 µM; Product isobutanol [1]: 64 µM |
| B1 |  |  | 125 | 56 | 92 | 260 |  |
| B2 |  |  | 520 | 766 | 1495 | 5242 | Product 1-butanol [2]: 220 µM; Product 2-phenylethanol [2]: 324 µM |
| B3 |  |  | 290 | 652 | 1099 | 2094 | Product 1-butanol [2]: 95 µM; Product 2-phenylethanol [2]: 469 µM |
| B4 |  |  |  |  |  |  | Production of 1-Butanol [3, 4]: 22 mg/L; Production of 1-Propanol [3, 4]: 695 mg/L; 1-Butanol change (fold) relative to the strain containing wild-type CimA [3, 5]: 1.2 fold; 1-Propanol change (fold) relative to the strain containing wild-type CimA [3, 5]: 2.3 fold |
